Data on two molecules can be found in paper PMC8136771, “The human tRNA-guanine transglycosylase displays promiscuous nucleobase preference but strict tRNA specificity”.

The target in this data set is His-hQTRT1 (catalytic subunit of human TGT);StrepII-hQTRT2 (noncatalytic subunit) (human;human, UniProt Q9BXR0;Q9H974 1-403;1-415, |). Put plainly: denaturing EMSA of covalent intermediate; 9-deazaguanine; RBT buffer: 50 mM Tris-HCl pH 7.5, 20 mM NaCl, 5 mM MgCl2, 2 mM DTT, 37 C, 1-1.5 h, with 9-deazaguanine (25-50 uM); capture-release with poly(U) and ArgSL competitors, urea and guanidine washes. To be noted: protein: recombinant;recombinant; tags: N-terminal His;N-terminal StrepII-SUMO; copies: 1;1; hairpin.
His-hQTRT1 (catalytic subunit of human TGT);StrepII-hQTRT2 (noncatalytic subunit), sequence (Q9BXR0 whole entry, chain 1 of 2): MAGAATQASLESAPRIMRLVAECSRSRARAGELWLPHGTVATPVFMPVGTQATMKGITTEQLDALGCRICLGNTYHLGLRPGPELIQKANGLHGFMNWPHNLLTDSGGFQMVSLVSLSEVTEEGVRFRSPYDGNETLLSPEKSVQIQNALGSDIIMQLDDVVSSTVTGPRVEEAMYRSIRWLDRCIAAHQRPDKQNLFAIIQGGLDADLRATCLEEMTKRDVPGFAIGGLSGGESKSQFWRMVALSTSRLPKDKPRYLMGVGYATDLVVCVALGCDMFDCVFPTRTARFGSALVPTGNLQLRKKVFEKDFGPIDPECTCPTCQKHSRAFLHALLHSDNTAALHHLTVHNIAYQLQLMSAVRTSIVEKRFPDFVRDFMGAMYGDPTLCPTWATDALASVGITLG
His-hQTRT1 (catalytic subunit of human TGT);StrepII-hQTRT2 (noncatalytic subunit), sequence (Q9H974 whole entry, chain 2 of 2): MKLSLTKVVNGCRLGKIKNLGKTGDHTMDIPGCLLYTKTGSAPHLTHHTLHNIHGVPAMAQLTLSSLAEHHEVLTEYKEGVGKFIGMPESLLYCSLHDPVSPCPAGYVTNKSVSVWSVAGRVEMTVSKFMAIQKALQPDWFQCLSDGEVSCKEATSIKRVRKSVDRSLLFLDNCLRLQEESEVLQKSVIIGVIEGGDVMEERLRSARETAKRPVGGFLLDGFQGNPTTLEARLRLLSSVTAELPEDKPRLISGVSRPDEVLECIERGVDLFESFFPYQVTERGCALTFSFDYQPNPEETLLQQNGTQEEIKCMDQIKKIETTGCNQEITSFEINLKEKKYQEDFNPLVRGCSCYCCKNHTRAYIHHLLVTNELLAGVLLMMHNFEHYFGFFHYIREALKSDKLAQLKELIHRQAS

B1: Aspartyl anticodon stem loop (AspSL) (structured_RNA)
RNA: CCCCGCCUGUCACGCGGGA
On to B1, for which the binding result is recorded as “binds”.

B2: Arginyl anticodon stem loop (ArgSL) (structured_RNA)
RNA: ACUGGCCUCCUAAGCCAGG
Take B2: the binding result was “no binding”.
